Laboratory results as given in patent US20230140868A1, “COMPOSITIONS AND METHODS FOR TREATING CANCER” (Alpha Beta Holdings, LLC, priority 2020, published 2023).

How the values were obtained:
[1] = tested on: αvβ3-expressing human pancreatic xenograft tumors; assay: αvβ3-expressing human pancreatic xenograft with or without macrophage depletion; type: in vivo, nude mice
Text: Successful depletion of macrophages by clodronate treatment was confirmed by staining tumor sections for the mouse macrophage marker F4/80.

tumor cells [2] = assay: In vitro ADCC with human monocyte-derived macrophages from healthy donor blood (LM609); type: cell-based; conditions: effector: human monocyte-derived macrophages from healthy donor blood
Experimental: (§1) Human peripheral blood mononuclear cells (PBMCs) and macrophages were isolated using leukoreduction system chambers (LRSC) purchased from the San Diego Blood Bank. PBMCs were isolated from LRSC using Histopaque-1083 (Sigma, 10831) following the manufacturer's protocol. To obtain macrophages, PBMCs were incubated in tissue culture plates with human M-CSF (Peprotech, 300-25) for 5 days.
(§2) We used the isolated macrophages as effector cells in an antibody-dependent cellular-cytotoxicity (ADCC) assay. […] The ratio of dead target cells (PI-positive) to the total target cell population (CFSE-positive) was calculated as described (Bracher, 2007).

tumor cells [3] = assay: In vitro ADCC with human PBMCs; type: cell-based; conditions: effector: PBMCs isolated from human blood
Experimental: as §1, §2
To our surprise, LM609-mediated ADCC was not achieved with mouse NK cells or peripheral blood mononuclear cells (PBMCs) isolated from human blood, immune effector cell types to which antibodies are commonly engineered for optimal binding (Listinsky, 2013; Yu, 2017). In fact, NK cells are not correlated with β3 expression in tumors. These findings were reported in FIG. 3E of Wettersten et al., Cancer Res. 79:5048 (2019).

[4] = tested on: αvβ3-expressing human lung cancer cells; assay: In vitro ADCC, primary human monocyte-derived macrophages as effector cells (FIG. 10A); type: cell-based; conditions: increasing E:T
Text: (A) In vitro ADCC for primary human monocyte-derived macrophages as effector cells. (B). In vitro ADCC for human NK cells as effector cells. Graphs show effect of increasing effector-to-target ratio (E:T) on death of αvβ3-expressing human lung cancer cells.
This distinction could produce a therapeutic advantage by achieving matching between the antigen (integrin αvβ3) and the types of effector cells that are particularly enriched in αvβ3-expressing tumors, such as macrophages.

integrin αvβ3 [5] = biological target: integrin αvβ3 (Homo sapiens, UniProt P05106+P06756); conditions: human cells; Cheresh, 1987; cited from earlier work
integrin αvβ3 [6] = biological target: T1, integrin αvβ3 (Mus musculus, UniProt O54890+P43406); conditions: mouse cells; Cheresh, 1987; cited from earlier work
T1 sequence (P43406 31-885 limits assumed): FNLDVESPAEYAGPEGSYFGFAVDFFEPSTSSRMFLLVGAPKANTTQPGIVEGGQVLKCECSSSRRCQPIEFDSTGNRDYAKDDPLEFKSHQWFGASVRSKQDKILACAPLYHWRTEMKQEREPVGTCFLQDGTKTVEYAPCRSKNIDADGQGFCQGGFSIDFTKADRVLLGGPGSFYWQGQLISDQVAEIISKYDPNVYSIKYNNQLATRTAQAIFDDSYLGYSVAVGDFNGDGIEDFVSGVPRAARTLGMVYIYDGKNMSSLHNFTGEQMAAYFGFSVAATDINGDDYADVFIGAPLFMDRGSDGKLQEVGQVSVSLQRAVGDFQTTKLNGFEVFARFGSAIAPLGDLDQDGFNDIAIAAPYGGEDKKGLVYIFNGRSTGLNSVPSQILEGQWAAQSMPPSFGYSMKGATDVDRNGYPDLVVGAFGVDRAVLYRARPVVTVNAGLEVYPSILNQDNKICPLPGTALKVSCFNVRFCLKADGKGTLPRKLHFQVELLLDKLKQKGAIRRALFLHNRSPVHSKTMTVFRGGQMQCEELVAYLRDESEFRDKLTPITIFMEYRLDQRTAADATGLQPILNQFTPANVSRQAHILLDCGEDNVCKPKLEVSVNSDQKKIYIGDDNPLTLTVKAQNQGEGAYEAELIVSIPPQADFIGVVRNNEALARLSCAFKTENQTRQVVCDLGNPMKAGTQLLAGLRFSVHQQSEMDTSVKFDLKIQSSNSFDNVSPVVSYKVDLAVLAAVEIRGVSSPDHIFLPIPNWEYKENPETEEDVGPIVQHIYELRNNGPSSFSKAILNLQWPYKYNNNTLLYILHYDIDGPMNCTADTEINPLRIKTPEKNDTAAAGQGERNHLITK
T1 sequence (P43406 887-1044 limits assumed): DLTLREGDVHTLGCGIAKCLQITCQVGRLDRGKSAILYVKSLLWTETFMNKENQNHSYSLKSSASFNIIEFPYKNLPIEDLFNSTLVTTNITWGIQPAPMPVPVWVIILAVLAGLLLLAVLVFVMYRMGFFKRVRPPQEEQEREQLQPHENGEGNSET
T1 sequence (O54890 26-787): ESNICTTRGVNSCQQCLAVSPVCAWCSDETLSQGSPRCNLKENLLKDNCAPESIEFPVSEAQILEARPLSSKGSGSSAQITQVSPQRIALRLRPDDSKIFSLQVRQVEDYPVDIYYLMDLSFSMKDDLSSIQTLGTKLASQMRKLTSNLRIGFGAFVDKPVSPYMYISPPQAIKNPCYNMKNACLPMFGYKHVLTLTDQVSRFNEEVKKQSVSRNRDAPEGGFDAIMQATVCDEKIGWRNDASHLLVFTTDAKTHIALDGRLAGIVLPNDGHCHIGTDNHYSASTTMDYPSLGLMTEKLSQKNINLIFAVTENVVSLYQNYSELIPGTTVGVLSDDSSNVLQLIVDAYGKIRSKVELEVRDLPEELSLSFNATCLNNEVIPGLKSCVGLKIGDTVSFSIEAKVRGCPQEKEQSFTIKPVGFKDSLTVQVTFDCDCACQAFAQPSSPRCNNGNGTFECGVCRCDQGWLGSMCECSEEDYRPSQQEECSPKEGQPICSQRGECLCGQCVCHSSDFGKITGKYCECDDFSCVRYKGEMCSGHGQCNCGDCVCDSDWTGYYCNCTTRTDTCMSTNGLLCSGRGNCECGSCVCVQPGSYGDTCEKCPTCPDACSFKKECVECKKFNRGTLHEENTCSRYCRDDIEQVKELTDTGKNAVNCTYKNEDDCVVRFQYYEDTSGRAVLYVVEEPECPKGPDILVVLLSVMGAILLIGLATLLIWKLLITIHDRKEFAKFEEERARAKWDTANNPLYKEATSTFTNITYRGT

Chain of integrin αvβ3 (Homo sapiens, UniProt P05106+P06756) (P06756 31-889 limits assumed): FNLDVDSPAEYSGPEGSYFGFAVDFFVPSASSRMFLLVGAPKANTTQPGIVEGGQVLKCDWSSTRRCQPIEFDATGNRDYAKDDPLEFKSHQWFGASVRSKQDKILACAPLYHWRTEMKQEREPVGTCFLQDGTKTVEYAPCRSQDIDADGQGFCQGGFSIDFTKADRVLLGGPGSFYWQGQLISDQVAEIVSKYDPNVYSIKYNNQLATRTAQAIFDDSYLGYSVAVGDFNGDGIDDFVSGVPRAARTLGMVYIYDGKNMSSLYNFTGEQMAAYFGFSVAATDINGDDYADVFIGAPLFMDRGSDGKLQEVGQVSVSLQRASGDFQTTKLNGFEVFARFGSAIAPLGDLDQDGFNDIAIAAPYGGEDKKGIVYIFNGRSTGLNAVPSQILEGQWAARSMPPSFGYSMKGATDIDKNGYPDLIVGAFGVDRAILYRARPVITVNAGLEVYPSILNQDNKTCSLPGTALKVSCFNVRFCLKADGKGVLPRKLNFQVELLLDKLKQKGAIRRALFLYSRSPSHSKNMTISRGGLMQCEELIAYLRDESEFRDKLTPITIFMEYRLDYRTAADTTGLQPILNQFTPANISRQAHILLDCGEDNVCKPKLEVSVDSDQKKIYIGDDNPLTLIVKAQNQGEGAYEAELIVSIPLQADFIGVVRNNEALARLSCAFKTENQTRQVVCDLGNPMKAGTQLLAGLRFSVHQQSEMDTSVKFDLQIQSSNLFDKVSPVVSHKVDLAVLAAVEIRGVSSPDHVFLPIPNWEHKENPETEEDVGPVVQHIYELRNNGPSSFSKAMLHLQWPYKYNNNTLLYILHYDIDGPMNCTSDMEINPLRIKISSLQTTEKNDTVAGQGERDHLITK
Chain of integrin αvβ3 (Homo sapiens, UniProt P05106+P06756) (P06756 891-1048 limits assumed): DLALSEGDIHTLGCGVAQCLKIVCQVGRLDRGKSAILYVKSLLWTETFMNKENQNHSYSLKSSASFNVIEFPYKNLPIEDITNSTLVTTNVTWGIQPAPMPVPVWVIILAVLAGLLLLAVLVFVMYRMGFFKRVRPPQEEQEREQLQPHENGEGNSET
Chain of integrin αvβ3 (Homo sapiens, UniProt P05106+P06756) (P05106 27-788): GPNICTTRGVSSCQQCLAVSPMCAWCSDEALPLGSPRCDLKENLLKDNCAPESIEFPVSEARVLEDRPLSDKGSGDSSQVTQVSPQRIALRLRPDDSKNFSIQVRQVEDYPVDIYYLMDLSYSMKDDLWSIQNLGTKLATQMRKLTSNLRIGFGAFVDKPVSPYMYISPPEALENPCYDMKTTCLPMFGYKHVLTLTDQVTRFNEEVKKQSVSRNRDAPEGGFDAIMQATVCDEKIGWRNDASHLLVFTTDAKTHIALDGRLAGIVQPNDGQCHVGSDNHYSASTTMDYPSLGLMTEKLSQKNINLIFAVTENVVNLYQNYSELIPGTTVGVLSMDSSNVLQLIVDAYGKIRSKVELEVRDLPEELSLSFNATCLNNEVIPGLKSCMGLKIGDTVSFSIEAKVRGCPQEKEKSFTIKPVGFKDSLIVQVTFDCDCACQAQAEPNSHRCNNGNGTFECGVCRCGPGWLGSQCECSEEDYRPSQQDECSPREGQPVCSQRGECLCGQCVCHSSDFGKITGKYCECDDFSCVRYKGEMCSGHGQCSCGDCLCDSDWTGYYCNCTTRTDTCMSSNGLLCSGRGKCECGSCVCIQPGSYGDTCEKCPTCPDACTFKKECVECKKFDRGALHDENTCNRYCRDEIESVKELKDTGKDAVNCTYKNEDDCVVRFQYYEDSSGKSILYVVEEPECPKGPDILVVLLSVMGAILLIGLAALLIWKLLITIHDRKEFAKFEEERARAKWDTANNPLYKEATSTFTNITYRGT

B1: LM609: mouse monoclonal IgG1K antibody that recognizes human integrin αvβ3; SEQ ID NO:11 and 12 (antibody)
heavy: MNFGLRLIFLVLTLKGVKCEVQLVESGGGLVKPGGSLKLSCAASGFAFSSYDMSWVRQIPEKRLEWVAKVSSGGGSTYYLDTVQGRFTISRDNAKNTLYLQMSSLNSEDTAMYYCARHNYGSFAYWGQGTLVTVSAAKTTPPSVYPLAPGSAAQTNSMVTLGCLVKGYFPEPVTVTWNSGSLSSGVHTFPAVLQSDLYTLSSSVTVPSSTWPSETVTCNVAHPASSTKVDKKIVPRDCGCKPCICTVPEVSSVFIFPPKPKDVLTITLTPKVTCVVVDISKDDPEVQFSWFVDDVEVHTAQTQPREEQFNSTFRSVSELPIMHQDWLNGKEFKCRVNSAAFPAPIEKTISKTKGRPKAPQVYTIPPPKEQMAKDKVSLTCMITDFFPEDITVEWQWNGQPAENYKNTQPIMDTDGSYFVYSKLNVQKSNWEAGNTFTCSVLHEGLHNHHTEKSLSHSPGK
light: MVFTPQILGLMLFWISASRGDIVLTQSPATLSVTPGDSVSLSCRASQSISNHLHWYQQKSHESPRLLIKYASQSISGIPSRFSGSGSGTDFTLSINSVETEDFGMYFCQQSNSWPHTFGGGTKLEIKRADAAPTVSIFPPSSEQLTSGGASVVCFLNNFYPKDINVKWKIDGSERQNGVLNSWTDQDSKDSTYSMSSTLTLTKDEYERHNSYTCEATHKTSTSPIVKSFNRNEC
modifications: mAb LM609-mIgG1-kappa Heavy chain; mAb LM609-mIgG1-kappa Light chain
For B1, the “anti-tumor effect after macrophage depletion” value ([1]; macrophage depletion using clodronate liposomes) was “completely blocked”, the “sensitivity of xenograft tumors to LM609” value ([1]; reported in FIG. 2A of Wettersten et al.) was “highly sensitive” and the “ADCC (tumor cell killing)” value (tumor cells [2]) was “could also kill tumor cells”. For the same molecule, the “LM609-mediated ADCC” value (tumor cells [3]) was “not achieved”, the “ADCC with human macrophages as effector cells” value [4] was “able to induce ADCC” and the “recognition of integrin αvβ3” value (integrin αvβ3 [5]) was “recognizes integrin αvβ3 on human”. The “recognition of integrin αvβ3” value (integrin αvβ3 [6]) was “not mouse cells”.
